# Where a chain is given by its changes, count along the chain named.
# Experiments:
# Assay in all cases: EMSA
# Conditions in all cases: EMSA: 40 mM HEPES pH 7.9, 300 mM KCl, 10% glycerol, 8% Ficoll, 2 mM EDTA, 0.2 mM MgCl2, 1 mM DTT, 600 ug BSA, 30 ug poly(dI-dC), 30 ul, 20 min, room …
# [1] = biological target: T1, His-TRF1 T358D T358D (Homo sapiens) (UniProt P54274)
# T1 sequence: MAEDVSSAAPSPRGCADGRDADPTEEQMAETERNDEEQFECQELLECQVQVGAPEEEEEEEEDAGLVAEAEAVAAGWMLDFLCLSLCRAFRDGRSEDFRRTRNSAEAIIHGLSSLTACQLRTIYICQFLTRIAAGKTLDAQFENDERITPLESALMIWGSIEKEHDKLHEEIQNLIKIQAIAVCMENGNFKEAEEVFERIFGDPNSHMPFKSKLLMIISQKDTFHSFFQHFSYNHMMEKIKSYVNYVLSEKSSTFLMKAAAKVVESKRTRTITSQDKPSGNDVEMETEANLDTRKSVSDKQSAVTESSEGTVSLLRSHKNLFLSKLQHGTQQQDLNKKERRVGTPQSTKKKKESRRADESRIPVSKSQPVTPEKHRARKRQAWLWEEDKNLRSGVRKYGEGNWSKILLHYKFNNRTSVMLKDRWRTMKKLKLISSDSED
# [2] = biological target: T2, His-TRF1 WT (Homo sapiens) (UniProt P54274)
# T2 sequence: T1 sequence with D358T
# [3] = biological target: T3, His-TRF1 T273D T273D (Homo sapiens) (UniProt P54274)
# T3 sequence: T1 sequence with T273D, D358T
sequence,measurement,setting,value
GGGTTAGGGTTAGGGTTAGGGTTAGGGTTAGGGTTAGGGTTAGGGCCCCTC (double strand) [ds (TTAGGG)7 telomeric probe],binding signal,[1],> 1 fold of WT
same,binding signal (fold of WT (reference)),[2],1
same,binding signal,[3],> 1 fold of WT

# — publication PMC7942993
